# Assay results taken from PMC6888645 (2019).
# B1: DD-N-CAP2, human CAP2 helical folded domain with the coiled coil (a.a. 1-29) replaced by the dimerization domain 2L4HC2_23 (other)
# chain: GTRTEIIRELERSLREQEELAKRLKELLRELERLQREGSSDEDVRELLREIKELVEEIEKLAREQKYLVEELKRQDGNCGEVNGVIAGVAPSVEAFDKLMDSMVAEFLKNSRILAGDVETHAEMVHSAFQAQRAFLLMASQYQQPHENDVAALLKPISEKIQEIQTFRERNRGSNMFNHLSAVSESIPALGWIAVSPKPGPYVKEMNDAATFYTNRVLKDYKHSDLRHVDWVKSYLNIWSELQAYIKEHHTTGLTWSKTGPVASTVS
# B2: ΔCC-N-CAP2, helical folded domain of human CAP2 with the coiled coil deleted (a.a. 30-220) (domain or fragment)
# chain: GNCGEVNGVIAGVAPSVEAFDKLMDSMVAEFLKNSRILAGDVETHAEMVHSAFQAQRAFLLMASQYQQPHENDVAALLKPISEKIQEIQTFRERNRGSNMFNHLSAVSESIPALGWIAVSPKPGPYVKEMNDAATFYTNRVLKDYKHSDLRHVDWVKSYLNIWSELQAYIKEHHTTGLTWSKTGPVASTVS
# B3: TD-N-CAP2, human CAP2 helical folded domain with the coiled coil (a.a. 1-29) replaced by the trimerization domain 2L6HC3_6 (other)
# chain: GTKYKIKETLKRLEDSLRELRRILEELKEMLERLEKNPDKDVIVEVLKVIVKAIEASVENQRISAENQKALAESDGNCGEVNGVIAGVAPSVEAFDKLMDSMVAEFLKNSRILAGDVETHAEMVHSAFQAQRAFLLMASQYQQPHENDVAALLKPISEKIQEIQTFRERNRGSNMFNHLSAVSESIPALGWIAVSPKPGPYVKEMNDAATFYTNRVLKDYKHSDLRHVDWVKSYLNIWSELQAYIKEHHTTGLTWSKTGPVASTVS
# B4: TD-N-CAP1, human CAP1 helical folded domain with the coiled coil (a.a. 1-29) replaced by the trimerization domain 2L6HC3_6 (other)
# chain: GTKYKIKETLKRLEDSLRELRRILEELKEMLERLEKNPDKDVIVEVLKVIVKAIEASVENQRISAENQKALAESDGYADSPSKAGAAPYVQAFDSLLAGPVAEYLKISKEIGGDVQKHAEMVHTGLKLERALLVTASQCQQPAENKLSDLLAPISEQIKEVITFREKNRGSKLFNHLSAVSESIQALGWVAMAPKPGPYVKEMNDAAMFYTNRVLKEYKDVDKKHVDWVKAYLSIWTELQAYIKEFHTTGLAWSKTGPVAKELSGL
# B5: ΔCC-N-CAP1, helical folded domain of human CAP1 with the coiled coil (a.a. 1-29) deleted (domain or fragment)
# chain: GYADSPSKAGAAPYVQAFDSLLAGPVAEYLKISKEIGGDVQKHAEMVHTGLKLERALLVTASQCQQPAENKLSDLLAPISEQIKEVITFREKNRGSKLFNHLSAVSESIQALGWVAMAPKPGPYVKEMNDAAMFYTNRVLKEYKDVDKKHVDWVKAYLSIWTELQAYIKEFHTTGLAWSKTGPVAKELSGL
# B6: N-CAP1, N-terminal fragment of human cyclase-associated protein 1 (original coiled coil and helical folded domain) (domain or fragment)
# chain: MADMQNLVERLERAVGRLEAVSHTSDMHRGYADSPSKAGAAPYVQAFDSLLAGPVAEYLKISKEIGGDVQKHAEMVHTGLKLERALLVTASQCQQPAENKLSDLLAPISEQIKEVITFREKNRGSKLFNHLSAVSESIQALGWVAMAPKPGPYVKEMNDAAMFYTNRVLKEYKDVDKKHVDWVKAYLSIWTELQAYIKEFHTTGLAWSKTGPVAKELSGL
# B7: DD-N-CAP1, human CAP1 helical folded domain with the coiled coil (a.a. 1-29) replaced by the dimerization domain 2L4HC2_23 (other)
# chain: GTRTEIIRELERSLREQEELAKRLKELLRELERLQREGSSDEDVRELLREIKELVEEIEKLAREQKYLVEELKRQDGYADSPSKAGAAPYVQAFDSLLAGPVAEYLKISKEIGGDVQKHAEMVHTGLKLERALLVTASQCQQPAENKLSDLLAPISEQIKEVITFREKNRGSKLFNHLSAVSESIQALGWVAMAPKPGPYVKEMNDAAMFYTNRVLKEYKDVDKKHVDWVKAYLSIWTELQAYIKEFHTTGLAWSKTGPVAKELSGL
# Target: T1, F-actin (skeletal muscle actin, polymerised) ( (rabbit or chicken skeletal …, UniProt P68135 1-377))
row,Binder,Kd [µM]
1,B1,7.11
2,B2,21.9
3,B3,0.68

# Target: T1, F-actin (skeletal muscle actin, …)
# Remark: another data set of the same source
row,Binder,Kd [µM]
1,B4,2.97
2,B5,5.69
3,B6,0.91
4,B7,3.42
